Experimental data published in patent US20140274782A1, “AFFINITY REAGENTS AND METHODS FOR DETECTION, PURIFICATION, AND PROTEOMIC ANALYSIS OF METHYLATED PROTEINS” (The Board of Trustees of the Leland Stanford Junior …, priority 2013, published 2014).

B1: MINA (protein, UniProt Q8IUF8 1-465, looked up)
Ribosomal oxygenase 2: MPKKAKPTGSGKEEGPAPCKQMKLEAAGGPSALNFDSPSSLFESLISPIKTETFFKEFWEQKPLLIQRDDPALATYYGSLFKLTDLKSLCSRGMYYGRDVNVCRCVNGKKKVLNKDGKAHFLQLRKDFDQKRATIQFHQPQRFKDELWRIQEKLECYFGSLVGSNVYITPAGSQGLPPHYDDVEVFILQLEGEKHWRLYHPTVPLAREYSVEAEERIGRPVHEFMLKPGDLLYFPRGTIHQADTPAGLAHSTHVTISTYQNNSWGDFLLDTISGLVFDTAKEDVELRTGIPRQLLLQVESTTVATRRLSGFLRTLADRLEGTKELLSSDMKKDFIMHRLPPYSAGDGAELSTPGGKLPRLDSVVRLQFKDHIVLTVLPDQDQSDEAQEKMVYIYHSLKNSRETHMMGNEEETEFHGLRFPLSHLDALKQIWNSPAISVKDLKLTTDEEKESLVLSLWTECLIQVV
B2: ILKAP (protein, UniProt Q9H0C8 1-392, looked up)
Integrin-linked …: MDLFGDLPEPERSPRPAAGKEAQKGPLLFDDLPPASSTDSGSGGPLLFDDLPPASSGDSGSLATSISQMVKTEGKGAKRKTSEEEKNGSEELVEKKVCKASSVIFGLKGYVAERKGEREEMQDAHVILNDITEECRPPSSLITRVSYFAVFDGHGGIRASKFAAQNLHQNLIRKFPKGDVISVEKTVKRCLLDTFKHTDEEFLKQASSQKPAWKDGSTATCVLAVDNILYIANLGDSRAILCRYNEESQKHAALSLSKEHNPTQYEERMRIQKAGGNVRDGRVLGVLEVSRSIGDGQYKRCGVTSVPDIRRCQLTPNDRFILLACDGLFKVFTPEEAVNFILSCLEDEKIQTREGKSAADARYEAACNRLANKAVQRGSADNVTVMVVRIGH
B3: PABPN1 (protein, UniProt Q86U42 2-306, looked up)
Polyadenylate-binding protein …: AAAAAAAAAAGAAGGRGSGPGRRRHLVPGAGGEAGEGAPGGAGDYGNGLESEELEPEELLLEPEPEPEPEEEPPRPRAPPGAPGPGPGSGAPGSQEEEEEPGLVEGDPGDGAIEDPELEAIKARVREMEEEAEKLKELQNEVEKQMNMSPPPGNAGPVIMSIEEKMEADARSIYVGNVDYGATAEELEAHFHGCGSVNRVTILCDKFSGHPKGFAYIEFSDKESVRTSLALDESLFRGRQIKVIPKRTNRPGISTTDRGFPRARYRARTTNYNSSRSRFYSGFNSRPRGRVYRGRARATSWYSPY
B4: UBAP2 (protein, UniProt Q5T6F2 1-1119, looked up)
Ubiquitin-associated protein 2: MMTSVSSDHCRGAREKPQISAAQSTQPQKQVVQATAEQMRLAQVIFDKNDSDFEAKVKQLMEVTGKNQDECIVALHDCNGDVNKAINILLEGNSDTTSWETVGCKKKNFAKENSENKENREKKSEKESSRGRGNNNRKGRGGNRGREFRGEENGIDCNQVDKPSDRGKRARGRGFGRGRGRGAGRFSTQGMGTFNPADYSDSTSTDVCGTKLVVWEAAQNGADEGTELASNTHNIAQDLSNKSSYGLKGAWKNSVEEWTTEDWTEDLSETKVFTASSAPAENHILPGQSIDLVALLQKPVPHSQASEANSFETSQQQGFGQALVFTNSQHNNQMAPGTGSSTAVNSCSPQSLSSVLGSGFGELAPPKMANITSSQILDQLKAPSLGQFTTTPSTQQNSTSHPTTTTSWDLKPPTSQSSVLSHLDFKSQPEPSPVLSQLSQRQQHQSQAVTVPPPGLESFPSQAKLRESTPGDSPSTVNKLLQLPSTTIENISVSVHQPQPKHIKLAKRRIPPASKIPASAVEMPGSADVTGLNVQFGALEFGSEPSLSEFGSAPSSENSNQIPISLYSKSLSEPLNTSLSMTSAVQNSTYTTSVITSCSLTSSSLNSASPVAMSSSYDQSSVHNRIPYQSPVSSSESAPGTIMNGHGGGRSQQTLDTPKTTGPPSALPSVSSLPSTTSCTALLPSTSQHTGDLTSSPLSQLSSSLSSHQSSLSAHAALSSSTSHTHASVESASSHQSSATFSTAATSVSSSASSGASLSSSMNTANSLCLGGTPASASSSSSRAAPLVTSGKAPPNLPQGVPPLLHNQYLVGPGGLLPAYPIYGYDELQMLQSRLPVDYYGIPFAAPTALASRDGSLANNPYPGDVTKFGRGDSASPAPATTPAQPQQSQSQTHHTAQQPFVNPALPPGYSYTGLPYYTGMPSAFQYGPTMFVPPASAKQHGVNLSTPTPPFQQASGYGQHGYSTGYDDLTQGTAAGDYSKGGYAGSSQAPNKSAGSGPGKGVSVSSSTTGLPDMTGSVYNKTQTFDKQGFHAGTPPPFSLPSVLGSTGPLASGAAPGYAPPPFLHILPAHQQPHSQLLHHHLPQDAQSGSGQRSQPSSLQPKSQASKPAYGNSPYWTN
B5: TRMT61A (protein, UniProt Q96FX7 2-289, looked up)
tRNA …: SFVAYEELIKEGDTAILSLGHGAMVAVRVQRGAQTQTRHGVLRHSVDLIGRPFGSKVTCGRGGWVYVLHPTPELWTLNLPHRTQILYSTDIALITMMLELRPGSVVCESGTGSGSVSHAIIRTIAPTGHLHTVEFHQQRAEKAREEFQEHRVGRWVTVRTQDVCRSGFGVSHVADAVFLDIPSPWEAVGHAWDALKVEGGRFCSFSPCIEQVQRTCQALAARGFSELSTLEVLPQVYNVRTVSLPPPDLGTGTDGPAGSDTSPFRSGTPMKEAVGHTGYLTFATKTPG

Tested on: 3×MBT domain of L3MBTL1
Experiment: Triple SILAC pull-down, 3xMBT/3xMBTD355N ratio (cytoplasmic, nuclear and chromatin fractions of 293T cells);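 note: proteins quantified with MaxQuant, requiring at least two unique peptides and quantification in both label directions, normalized to the mean of proteins from a digested loading control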
Type: binding, human
Conditions: SILAC ratio, pull-down 3xMBT vs 3xMBTD355N; experiment with UNC0638 in heavy SILAC media

Compared with B1, B2 is higher in “3xMBT/D355N UNC Heavy” value: 2.27 log base 2 for the first, 3.22 log base 2 for the second.

Compared with B3, B4 is lower in “3xMBT/D355N UNC Heavy” value: 3.77 log base 2 for the first, 2.90 log base 2 for the second.

B5 was tested, and the “3xMBT/D355N UNC Heavy” value was 2.78 log base 2.

Same assay, conditions: SILAC ratio, pull-down 3xMBT vs 3xMBTD355N; experiment with UNC0638 in light SILAC media

Compared with B1, B2 is higher in “3xMBT/D355N UNC Light” value: 2.12 log base 2 for the first, 2.54 log base 2 for the second.

Compared with B3, B4 is lower in “3xMBT/D355N UNC Light” value: 4.04 log base 2 for the first, 1.92 log base 2 for the second.

B5 was tested, and the “3xMBT/D355N UNC Light” value was 3.82 log base 2.

Target: T1, G9a and GLP (Homo sapiens, UniProt Q96KQ7+Q9H9B1)
T1 sequence (Q96KQ7 2-1210 limits assumed): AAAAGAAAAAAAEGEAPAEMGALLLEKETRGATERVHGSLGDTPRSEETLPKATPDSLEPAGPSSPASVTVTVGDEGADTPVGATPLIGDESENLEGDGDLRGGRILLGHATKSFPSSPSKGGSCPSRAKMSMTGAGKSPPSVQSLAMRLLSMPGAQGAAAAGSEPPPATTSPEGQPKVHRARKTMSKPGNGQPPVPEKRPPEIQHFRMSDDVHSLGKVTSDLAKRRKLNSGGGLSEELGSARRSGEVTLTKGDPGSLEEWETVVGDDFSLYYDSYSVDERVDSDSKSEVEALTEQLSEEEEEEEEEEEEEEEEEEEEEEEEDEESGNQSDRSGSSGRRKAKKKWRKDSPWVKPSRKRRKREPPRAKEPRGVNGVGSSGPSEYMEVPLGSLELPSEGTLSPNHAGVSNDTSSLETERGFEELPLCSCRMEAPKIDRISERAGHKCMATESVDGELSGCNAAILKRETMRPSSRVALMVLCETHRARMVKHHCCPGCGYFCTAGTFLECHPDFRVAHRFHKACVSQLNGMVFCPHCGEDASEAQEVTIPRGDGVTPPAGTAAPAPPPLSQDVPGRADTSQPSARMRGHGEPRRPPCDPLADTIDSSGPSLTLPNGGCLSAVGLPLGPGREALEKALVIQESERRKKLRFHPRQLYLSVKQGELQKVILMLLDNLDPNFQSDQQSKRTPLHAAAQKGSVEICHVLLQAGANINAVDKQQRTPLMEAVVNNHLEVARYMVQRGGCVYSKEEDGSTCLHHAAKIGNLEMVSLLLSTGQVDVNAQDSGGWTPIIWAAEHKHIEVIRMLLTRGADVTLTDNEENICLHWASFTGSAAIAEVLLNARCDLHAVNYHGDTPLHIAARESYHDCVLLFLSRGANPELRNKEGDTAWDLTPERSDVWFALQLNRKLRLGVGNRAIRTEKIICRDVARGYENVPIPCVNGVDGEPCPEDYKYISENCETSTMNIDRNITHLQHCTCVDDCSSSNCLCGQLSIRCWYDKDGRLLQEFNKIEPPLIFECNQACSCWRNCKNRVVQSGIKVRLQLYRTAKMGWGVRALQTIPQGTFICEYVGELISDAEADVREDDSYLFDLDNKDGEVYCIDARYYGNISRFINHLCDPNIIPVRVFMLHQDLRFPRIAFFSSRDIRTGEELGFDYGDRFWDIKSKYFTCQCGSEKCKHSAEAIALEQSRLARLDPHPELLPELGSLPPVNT
T1 sequence (Q9H9B1 2-1298 limits assumed): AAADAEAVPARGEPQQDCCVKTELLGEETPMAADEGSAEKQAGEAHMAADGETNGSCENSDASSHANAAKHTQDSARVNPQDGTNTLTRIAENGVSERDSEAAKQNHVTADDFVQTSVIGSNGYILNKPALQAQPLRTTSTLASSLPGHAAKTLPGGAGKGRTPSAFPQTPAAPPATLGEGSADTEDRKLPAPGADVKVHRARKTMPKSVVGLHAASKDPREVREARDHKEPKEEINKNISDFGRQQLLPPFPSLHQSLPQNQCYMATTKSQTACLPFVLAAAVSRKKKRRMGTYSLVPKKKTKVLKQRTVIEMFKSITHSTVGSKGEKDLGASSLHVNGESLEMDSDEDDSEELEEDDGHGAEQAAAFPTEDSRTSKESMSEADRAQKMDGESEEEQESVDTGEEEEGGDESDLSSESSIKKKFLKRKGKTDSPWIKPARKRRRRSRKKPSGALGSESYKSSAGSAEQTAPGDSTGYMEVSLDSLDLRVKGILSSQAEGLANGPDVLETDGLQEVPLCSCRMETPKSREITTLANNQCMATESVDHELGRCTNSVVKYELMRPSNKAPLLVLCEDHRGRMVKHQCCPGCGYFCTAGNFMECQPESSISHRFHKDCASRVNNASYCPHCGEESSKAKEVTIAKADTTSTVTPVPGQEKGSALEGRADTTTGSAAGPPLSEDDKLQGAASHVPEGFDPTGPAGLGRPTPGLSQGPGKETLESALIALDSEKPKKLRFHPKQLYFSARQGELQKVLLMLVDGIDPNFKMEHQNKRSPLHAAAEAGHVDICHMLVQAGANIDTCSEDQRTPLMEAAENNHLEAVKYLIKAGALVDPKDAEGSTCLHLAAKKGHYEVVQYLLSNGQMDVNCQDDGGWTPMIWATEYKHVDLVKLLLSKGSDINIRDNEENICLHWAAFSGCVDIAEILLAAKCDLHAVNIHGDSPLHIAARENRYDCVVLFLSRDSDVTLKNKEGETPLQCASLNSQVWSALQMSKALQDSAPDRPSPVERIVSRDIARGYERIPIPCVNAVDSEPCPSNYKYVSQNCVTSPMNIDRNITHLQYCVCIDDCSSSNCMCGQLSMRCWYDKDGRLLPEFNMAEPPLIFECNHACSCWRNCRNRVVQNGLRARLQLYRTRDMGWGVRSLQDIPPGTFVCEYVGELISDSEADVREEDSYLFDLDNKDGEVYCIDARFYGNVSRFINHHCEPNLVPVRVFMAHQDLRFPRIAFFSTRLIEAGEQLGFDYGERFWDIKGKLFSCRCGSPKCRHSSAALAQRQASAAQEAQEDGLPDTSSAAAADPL
Experiment: Triple SILAC pull-down after UNC0638 treatment of 293T cells, DMSO/UNC0638 ratio of protein captured by 3×MBT;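 note: mass spectrometry (Q-Exactive) SILAC quantitation, DMSO/UNC0638 ratio computed after subtracting 3×MBTD355N mutant pull-down background, only proteins with at least twofold 3×MBT over mutant signal considered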
Type: cell-based
Set-up: cells were treated for 24 hours with UNC0638 at 2.5 μM or DMSO vehicle control; endogenous in cells; host or cells: HEK 293T
Conditions: SILAC ratio DMSO/UNC0638 of protein pulled down with 3xMBT; UNC0638 in heavy SILAC media

Compared with B1, B2 is lower in “Relative to UNC0638 UNC Heavy” value: 0.34 log base 2 for the first, −0.07 log base 2 for the second.

First: B3
Second: B4
The “Relative to UNC0638 UNC Heavy” value of the first is higher: 0.21 log base 2 for the first, 0.20 log base 2 for the second.

In the case of B5, the “Relative to UNC0638 UNC Heavy” value is reported as −0.07 log base 2.

Same assay, conditions: SILAC ratio DMSO/UNC0638 of protein pulled down with 3xMBT; UNC0638 in light SILAC media

Compared with B1, B2 is higher in “Relative to UNC0638 UNC Light” value: −0.08 log base 2 for the first, 0.33 log base 2 for the second.

B3 and B4 are the same in “Relative to UNC0638 UNC Light” value: 0.04 log base 2 for the first, 0.04 log base 2 for the second.

For B5, the “Relative to UNC0638 UNC Light” value was 0.29 log base 2.

Same assay, conditions: average of UNC Light and UNC Heavy experiments

B1 and B2 are the same in “Relative to UNC0638 Average” value: 0.13 log base 2 for the first, 0.13 log base 2 for the second.

Going from B3 to B4, the “Relative to UNC0638 Average” value falls from 0.13 log base 2 to 0.12 log base 2.

For B5, the “Relative to UNC0638 Average” value was 0.11 log base 2.
